Reference: the nanobody polyreactivity screen of Harvey et al. (2022)

Assay: yeast display, Sf9 membrane polyspecificity reagent, FACS + sequencing; frameworks hold sequencing errors
Outline: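 Sorting gates, low and high (top ~1%), were placed on anti-HA fluorescence to track expression and on streptavidin fluorescence to track reagent binding. A clone's polyreactivity label is taken from the gate it came out of. The reagent was 10% biotinylated, detergent-solubilized Sf9 membrane, applied for 1 hour at 4 °C to galactose-induced yeast display cells.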

| Sequence | polyreactivity (PSR sort gate) |
| --- | --- |
| QVQLVESGGGLVQARGSLRLSCAASGSIFRYNAMGWYRQAPGKERELVAAITSAGGSTYYADSVKGRFTISRDKAKNTVYLQMNSLKPEDTAVYYCAVRYYVYFPWPRVTERMYYWGQGTQVTVSS | high polyreactivity |
| QVQLVESGGGLVQAGGSLRLSCAASGRTFTPYDMGWYRPAPGKERELVAAITWRGGSTYYADSVKGRFTISRDNAKNTVYLQMNSLKPEDTAVYYCAKDRWTYAFRVGYGYWGQGTQVTVSS | high polyreactivity |
| QVQLVESGGGLVQAGGSLRLSCAASGRTFHDYAMGWYRQAPGKERELVASISSGGSTYYADSVKGRFTISRDNAKNTVYLQMNSLKPEDTAVYYCAAYYYSTLYYRYDYWGQGTQVTVSS | low polyreactivity |
| QVQLVESGGGLVQAGGSLRLTCAASALTFVWYAMGWYRQATGKERELVAAIRGGGSTYYADSVKGRFTISRDNAKNTVYLQMNRLIPEDTAVYYCAAQRSPYYTFYYWGQGTQVTVSS | high polyreactivity |
| QVQLVESGGGLVQAGGSLRLSCAASGFIFRYYAMGWYRQAPGKERELVADISWSGGSTHYADSVKGRFTISRDNAKNTVYLQMNSQKPEDTAVYYCAADPTLYSSWSTYYRSNYWGQGTQVTVSS | high polyreactivity |
| QVQLVESGGGLVQAGGSLRLSCAASGRILVQNDMGWYRQEPGKERELVAAIRSDGSTSYADSVKGRFTISRDNAKNTVYLQMNSLKPEDTAFYYCAARIDWTGGEYDYWGQGTQVTVSS | low polyreactivity |
| QVQLVESGGGLVQAGGSLRLSCAASGFTFLTYLMGWYRQAPGKERELVASISGSGGTTYYADSVKGRFTISRDNAKNTVYLQMNSLKPEDTAVYYCAASGRYRRYYKFNYWGQGTQVTVSS | high polyreactivity |
| QVQLVESGGGLVQAGGSLRLSCAASGSNFQFNAMGWYRQAPGKEREFVAAITSSAGRTYYADSVKGRFTISRDNAKNTVYLQMNSLKPEDSAVYYCGDTFYRRYVDLGYWGQGTQVTVSS | high polyreactivity |
| QVQLVESWGGLVQAGGSLRLSCAASGLIFNYYAMGWYRQAPGKERELVAAITTGGGTYYADSVKGRFTISRDNAKNTVYLQMNSLKPEDTAVYYCAAVWGNRSRYPGHYYWGQGTQVTVSS | high polyreactivity |
| QVQLVETGGGLVQAGGSLRLSSAASGSTFAWYAMGWYRQAPGKEREFVAAIDQDDDSTYYADSVKGRFTISRDNAKNTVYLQMKSLKPEDTAVYYCAASSPWEQSNDQFYYWGQGTQVTVSS | low polyreactivity |
| QVQLVESGGGLVQAGGSLRLSCAASGSIFYGNTMGWYRQAPGKEREFVAAINKSDDSTYYADSVKGRFTISRDNAKNTVYLQMNSLKPEDTAVYYCAADYLGRFDYNYWGQGTQVTVSS | low polyreactivity |
| QVQLVESGGGLVQAGGSLRLSCAASGRIFGTYAMGWYRQAPRKERELVAAITQSARSTYYADSVKGRFTISRDNAKNTVYLQMNSLKPEDTAVYYCAAVGYYTKRRFGYWGQGTQVTVSS | high polyreactivity |
| QVQLVESGGGLVQAGGSLRLSCAASGGIFYPNVMGWYRQAPGKEREFVAAITSSSGSTYADSVKGRFTISRDNAKNTVYLQMNSLKPEDTAVYYCAAVENWWGIWVRYDYWGQGTQVTVSS | low polyreactivity |
| QVQLVESGGGLVQAGGSLRLSCADSGSTFTVYVMGWYRQAPGKETEFVAAITRIGGSTYYADSVKGRFTISRDYAKNTVYLQRNCLKTEDTAVYYCATYHTNSYYQLLYDYWGQGTQVTVSS | low polyreactivity |
| QVQLVESGGGLVQAGGSLRLSCAASGIIFRVNAMGWYRQAPGKERELVAAISSGGRTYYADSVKGRFTISRDNAKNTVYLQMNSLKPEDTAVYYCAAKPPSTYDYWGQGTQVTVSS | high polyreactivity |
| QVQLVESGGGLVQAGGSLRLICAASGSTFSSYFMGWYRQAPRKERKLVAAITRSGVYTYYADSVKGRFTISRDNAKNTVYLQMNSLKPEDTAVYYCARRAKGAYWNEYNYWGQGTQVTVSS | high polyreactivity |
| QVQLVESGGGLVQAGGSLRLTCAASGRTFRANAMGWYRQATGKERELVAAISQRGGNTYYADSVKGRFTSSRDNAKNTVYFQMNSLKPEDTAVYYCAADITTYRRGRYEYEYWGQGTQVTVSS | high polyreactivity |
| QVQLVESGGGLVQAGGSLRLSCAASGIIYWDYAMGWYRQAPGKEREYVAAINTSGGTTTYADSVKGRFTISRDNAKNTVYFQMNSLKREDTAVYYCAADPWVYYSYAYYSWGQGTQVTVSS | low polyreactivity |
| QVQLVESAGGLVQEGGSLRLSCAASGSISAPYAMGWYRQAPGKERELVAAISWRGGRTYYADSVKGRFTISRDNAKNTVYLQMNSLKTEDTAVDYCAAKFRLGQFDYDYWGQGTQVTVSS | high polyreactivity |
| QVQLVESGGGLVQAGGSLRLSCAASGSTLGYYTMGWYRQAPGKERELVAAIDWSGGSTYYADSVKGRFTISRDNAKNTVYLQMNSLKPEDTAVYYCAVDYTYSYVDYWSEYDYWGQGTQVTVSS | low polyreactivity |
| QVQLVESGGGLVQAGGSLRLSCAASGSIFTRNAMGWYRPAPGKERELVAAIRWNGGRTYYADSVKGRFTISRDNAKNTVYLQMNSLKPEDTAVYYCAADYYQRRYVPEYDYWGQGTQVTVSS | low polyreactivity |
| QVQLVESGGGLVQAGGSLRLSCAASGSTFPQYAMGWYRQAPGKERELVAAISFSGGSTYYADSVKGRFTISRDNAKNTVYLQMNSLKPEDTAVYYCAAELGLAQYYYWGQGTQVTVSS | low polyreactivity |

| Sequence | polyreactivity (PSR sort gate) |
| --- | --- |
| QVQLVESGGGLVQAGGSLRLSCAASGITFVFNVMGWSRQAPGKERELVADIRSGGTTNYADSVKGRFTISRDNAKNTVYIQMNSLKPEDTAVYYCAKEKYDYVGDYEVDYWGQGTQVTVSS | low polyreactivity |
| QVQLVESVGGLVQAGGSLRLSCAASGSIFVNNAMGWYRQAPGKERELVAAISRSGGSTYYADSVKGRFTISRDNAKNTVYLQMNSLKPEDTAVYYCATVHRSSTPPEFNYWGQGTQVTVSS | high polyreactivity |
| QVQLVESGGGLVQAGGSLRLSCAASGITSTVYAMGWYRQAPGKERELVAGISWSTSSTYYADSVKGRFTISRDNAKNTVYVQMNSLKPEDTAVYYCAKAGAYKYGYWGQGTQVTVSS | high polyreactivity |
| QVQLVESGGGLVQAGGSLRLSCAASGSTFYRYALGWYRQAPGKERELVAAISRSGGNTFYADSVKGRFTISRDNAKNTVYLQMNRLKPEDTAVYYCAALRSWYAQTSGMDYWGQGTHVTVSS | high polyreactivity |
| QVQLVESGGGLVQAGGRLRLSCAASGRTFEGYAMAWYRQAPGKERELVAAISGSSGSTYYADSVKGRFTISRDNAKNTVYLQMNSLKPEDTAVYYCNADYDWPGGSDYWGQGTQVTVSS | low polyreactivity |
| QVQLVESGGGLVQAGGSLRLSCAASGFTFWGYTMGWYRQAPGKERELVAAITSTGSTYYAYSVKGRFTISRDNAKNTVYLQMNSLKPEDTSVYYCATARSYLTYSYHYDYWGQGTQVTVSS | low polyreactivity |
| QVQLVESGGGLDQAGGSLRLSCAASGRIFIKNTMGWYRQAPGKERELVAAITSSGSSTYYADSVKGRFTISRDNAKNTVYLKMNSLKPEDTAVYYCNALTWDHSRTGVDYWGQGTQVTVSS | low polyreactivity |
| QVQLVESGGGLVQAGGSLRLSCAASGFIFKRYAMGWYRQAPGKERELVATISNSGGRTYYADSVKGRFTISRDNAKNTVYLQINSLKPEDTAVYYCDALPFWWGGYWGQGTQVTVSS | high polyreactivity |
| QVQLVESGGGLVQAGGSLRLSCAASGLTFYGNAMGWYRQAPGKETELVADISLSGGRTFYADSVKGRFTISRDNAKNTVYLQMNSLKPEDTAVYYCAKTYTSGYHRRYDYWGQGTQVTVSS | low polyreactivity |
| QVQLVESGGGLVQAGGSLRLSCAASGSTFVGNAMGSYRQAPGKERELVATISNSGGRTYYADSVKGRFTISRDNAKNPVYLQRNSLKPEDTAVYYCPADHPAFGPGYSFDYWGQGTQVTVSS | low polyreactivity |
| QVQLVESGGGLVQAGGSLRLSCAASGFTFPAYTMGWYRQAPGKERELVSAITSSGGNTYYADSVKGRFTISRDNAKNTVYLQMNSLKPEDTAVYYCSTVSVRGPSYDHVRYDYWGQGTQVTVSS | low polyreactivity |
| QVQLVETGGGLVQAGGSLRLSCAASRSIFLYYAMGWYRQAPGKERELVAAISYSGSGTYADSVKGRFTISRDNAKNTVYLEMNSLKPEDTAVYYCNVDYGSYSYDYWGQGTQVTVSS | low polyreactivity |
| QVQLVESGGGLVQAGGSLRLSCAASGFTFYTNAMGWYRQAPGKERELVADITTSGGDTYYADSVKGRFTISRDNAKNTVYLQMNSLTPEDTAVYYCGEFWTYWGYGQYDYWGQCTQVTVSS | low polyreactivity |
| QVHLVESGGGLVQAGGSLRLSCAASGRIFGYYAMGWYRQAPGKERELVARISSSGGSTYYADSVKGRFTISRDNAKNTVYLQMNSLKPEDTAVYYCNTASNRYPGWRAEFDYWGQGTQVTVSS | low polyreactivity |
| QVQLVESGGGLVQAGGSLRLSCAASGYTFVLNAMGWYRQAPGKEREMVAAINLDSGNTNYADSVKGRFTISRDNAKNTVYLQMNSLKPEDTAVYYCNTDVKFGGTAYDYWGQGTQVNVSS | low polyreactivity |
| QVQLVESAGGLDQAGGSLRLSCAASGSIFYIYAMGWYRQAPGKERELVATISGSGGSTHYADSVKGRFTISRDNAKNSVYLQKNSLKPEDTAVYYCAADVLPYGYYWGQGPQVTVSS | low polyreactivity |
| QVQLVESGGGLVQAGGSLRLSCAASGRTFLYNAMGWYRQAPGKERELVASISYSGGSTYYADSVKGRFTISRDTAKYTVYLQMNSLKPEDTAGYYCAARFYASQDIRYDYWGQGTQVTVSS | high polyreactivity |
| QVQLVESGGGLVQAGGSLRLSCAASGFTFITNAMGWYRQAPGKERELVAAISSSGGRTYYADSVKGRFTISRDNAKNTVYLQMNSLKPEDTAVYYCNADRSLLYSRKIEYDYWGQGTQVTVSS | low polyreactivity |
| QVQLVESGGGLVQAGGSLRLSCAASGRILAGYAMGWYRQAPGKERELVAAITRGGTTYYADSVKGRFTISRDNAKNSVYLQMNSLKPEDTAVVYTVSSAQYDYCGQGTQVTVSS | low polyreactivity |
| QVQLVESGGGLVQAGGSLRLSCAASGSIFWYYAMGWYRQAPGKERELVAAISSGGSTYYADSVKGRFTISRDNAKNTVYLQMNSLKPEDTAVYYCAAGAFGQILNYWGQGTQVTVSS | high polyreactivity |
| QVQLVESGGGLVQAGGSLRLSCAASGRIFKFNTMGWYRQAPGKERELVAVITLSGGRTFYADSVKGRFTISRDNAKNTVYLQMNSLKPEDTAVYYCAKDFEGYEGGLSRDDYWGQGTQVTVSS | low polyreactivity |
